{"source": "the DeepSol protein solubility set"}
{"assay": "soluble on expression in E. coli; label from the status in PepcDB or PDB records"}
{"sequence": "MGGPEKNSTVPLPNKKRKKKTNKKKPTAPNTPTSPQAGEKNANLKNGTVTTNGSNHVERLAGRAVHSLSAIDYSGITNDVEAGGSFSLTDVFPTVIFMFVVLFCRWLNGFSQHRERLYKFEDEAVQRRRRFRVHSEESEELNDHESYSETDICTQLLASSADVTCHINVDLVNQNRFYFFVKQRNKKENSTNEEEEISSQEINTSTQNEETEVNLVFASAEDNGGVASNFDISDALMVTSNISEVSKLPETLCEEGETVQQKSVVNENDHSNEDDEQSLQSQDGSRCSDEDMNSCVSASDEEDVESQDDSFHVNDATEESIDSVSSIESQEAEESATEDLASCHSNDDKNEKDVLVDEDTSKYDNLPVEMRSAKEGEESEGTIDSSVSSSTSSSSTGDDGDDSATSYDSEDIEIQMFEYDLGTACASASISIPRPSIIPRNNKKTEVNANEERLDDLSVSPGRSDSPGGGGGGHSDSFQDPMDPGEQLGSDDEEQEDPRDYKRGGYHPVNIGDVFNARYHVIRKLGWGHFSTVWLAWDTQDKRFVAMKIVKSAEHYTEAALDEIKLLLSVRSADPNDIGCHKVVQLLDEFTVTGINGQHVAMVFEVLGCNLLKLIIRSNYRGLHLEQVRKICRQVLEALGYMHEKCGIIHTDIKPENVLITMSREEIKIMAQHAVVARKMNMKMSGSAVSTAPDHLVKMAQENMTKNKKKKMKKKAKKQREKLEAELAGLEGLKMDANGLQEAYNNAPELENFNASQVEDVTMEDTVNENGNRNKVEIRSPDRFDRTTLTPFSDPESKFGDLASPSAEYLSSPMSQLPPGGILPAPPVGPNIGDPYCDIDVKIADLGNACWVNHHYTDDIQTRQYRALEVLIGSGYGPPADIWSTACMAFELATGDYLFEPHQGDNYSRDEDHLAHISELLGAIPPSIYKKGKHWREFFHKNGHLLHIHQLKPWSLYEVLRQKYEWSHEDAQQFESFLRPMLDFDQEKRSTAKIALKHPFLLPFGGRAPKSDCPPELLSKMFPDGLIPEPFDGNEHQEVYRDENDSRSASERSANSRSAGGSDDDDEEEFNMNRPGPSGHFPIFCSRVFTFMF", "soluble on expression in E. coli": "soluble"}
{"sequence": "MDRPSRITRFFMGIVSWAERLNLKYAKLGNPPVYDNATFPWSAEIEKEWPAIRKELDKILLRQSKLPSFQDISTDVKTISTDNRWKTFFLLGFGVKSEQNIKACPETWRIVNKIPGLTTAMFSIFEPGKHLPPHRGPYNGVLRLHLGLIVPEPNDHWRSAWTARSATGTKARCLEHHHHHH", "soluble on expression in E. coli": "not soluble"}
{"sequence": "MGSDKIHHHHHHMKIGFVGAGVGTLHAALLLTKRYPEVEITIFEKESRAGGRLASVDFETGGRIDQGPTIVLMPGKLQEQLREAGLEGVELERIDPLYDLHFDDGTIVTKQADVVDQTIAIERQFGEGRGFQEFMQQKAKDYDVSVSKFLERTYSRKRDLLHPDMLAPLVKMHAMETAHDHLKRFFKSKHLRMAYSFPTFYIGGNPYTTPSIYGLIPYREQEEGVWYVKGGYFSLAERMYEALVERGVTFKFNQPVDRVLIQQGQTKGLVAAGQEYVYDTVVLNGEFPLMEYLVEGKQPKKYVPSGGTLLLYFKIDGKVDLPVHRFLMPSDLKPLMTSIFKKNELPENPAVYLFNPSKIDDALTASGTSVVYALVPSPRGFDQANYEAHGFIDQILDKIEQHLPGFQSQVTEMKIRTPQDAQDFGLYEGGSFGIAPTIRQSAALKTQAKPYADIERLYAVGASVHPCGGVPIVMMGATLLVNRMEQEMRWKNGYSDERISSM", "soluble on expression in E. coli": "not soluble"}
{"sequence": "MLNEKAIQDVDLYFQNIHGPEGRLASNETFDIVPGLSKDGAVQYQTYQFNEAPKHLQKQVKAGRILMERFVAVASAAVNKKAPSNKEKYHYDIWKEVSNQLIPAFFTDPIKGEQNLNTTVKGVEVAKSVIQFAGNVIAGNVTGFATFLQNFGNGLSAEMNKTQANYNYLYAYSTHDLFQDTSGNVFYKPRFLIYGTHFKQEQKKIATSCASYQEVNLEFGVDTVGGTFRIEEYFSNETFKKKVDNFLDKYEGKAIDDADSYFDDIFNGVKPNKNYVYHHHHHH", "soluble on expression in E. coli": "soluble"}
{"sequence": "MGSDKIHHHHHHMQSTASHTKAPGKSHPVVTEDQYFSVSPLMLLADNAALFSVYLRQGNNFVLYTHAGEMFTHRHKQRLAENGVTEVWLKESQRHAYTAHVEQHLGNVLADDSLPAEARAGALYGIASDALQDVFAQHGAGALPADTARRARQLVEHIISFLKVPNGITALGRFIAHDYHSWTHSLNTTFYTLGILQSYGLPDESMAHIGLGAMLHDIGKAEIPSSILLKPGPLTASERQCINTHPLMGVARLAQTELPQTTLNCILFHHEKLDGSGYPSGIGGTAIPLAVRAVTVADIYDALASERPYAAARPPFAVLQLMRGEMADELDMDVFKNFVLMLSNAGLTKT", "soluble on expression in E. coli": "not soluble"}
{"sequence": "MGSDKIHHHHHHMRLKISLLSPADSFEIDLNHSYHLASAIYRAIERADPSLSIELHKPDVPKFFTFSKLFIPKRKFRIEGEKMVSDCEEAYFFFSTLRNEVAASLVEGLLSKPEIRICGVDFIVSEVSVLPEREVKGREKFVTLSPIYASTSVGENGRRRIFDLYPKDSKFYEVILQNLVKKYVLYYKSAPENLDFHMKPLNVKAKRIRLKDTFHRCVEMVFKAEGSPELLDVGYKAGFGSKNSMGFGMVKVV", "soluble on expression in E. coli": "not soluble"}
{"sequence": "GPGSMLAQCSLFVQPRVFKGLVMRSHAPVACWAASLPWMTQQQRRRSSFASATPAAPSTDAGKGNYFHFFRIAKHPDLDVAALQKKYHNLQRLVHPDQQQVQAQQQQAEAADVAPATSSSPLPFACTSNEAKSSTDVSTYANAAYETLRAPYSRCRYLSRLVKAEEVKGNPLSAAEEEELLVEDDQRTMKAREVRPDAPMSDDFLMEMLAMNELIFAGDSSDEGVRQQWSVLRFDLEDRAVGYFKDAIKSWNDGDMGAFHHIVHEWTYVATALNNLKERMLE", "soluble on expression in E. coli": "not soluble"}
{"sequence": "INKINLNKPIIENKNNVDVSIKRYNNFVDIARLSIQKHFEHLSNDQKDSHVNNMEYMQKFVQGLQENRNISLSKYQENKAVMDLKYHLQKVYANYLSQEEN", "soluble on expression in E. coli": "soluble"}
{"sequence": "MSLSETASWQPSASIPNLLKRAAIMAEIRRFFADRGVLEVETPCMSQATVTDIHLVPFETRFVGPGHSQGMNLWLMTSPEYHMKRLLVAGCGPVFQLCRSFRNEEMGRYHNPEFTMLEWYRPHYDMYRLMNEVDDLLQQVLDCPAAESLSYQQAFLRYLEIDPLSADKTQLREVAAKLDLSNVADTEEDRDTLLQLLFTFGVEPNIGKEKPTFVYHFPASQASLAQISTEDHRVAERFEVYYKGIELANGFHELTDAREQQQRFEQDNRKRAARGLPQHPIDQNLIEALKVGMPDCSGVALGVDRLVMLALGAETLAEVIAFSVDRAEGHHHHHH", "soluble on expression in E. coli": "soluble"}
{"sequence": "MPIGNLGHNPNVNNSIPPAPPLPSQTDGAGGRGQLINSTGPLGSRALFTPVRNSMADSGDNRASDVPGLPVNPMRLAASEITLNDGFEVLHDHGPLDTLNRQIGSSVFRVETQEDGKHIAVGQRNGVETSVVLSDQEYARLQSIDPEGKDKFVFTGGRGGAGHAMVTVASDITEARQRILELLEPKGTGESKGAGESKGVGELRESNSGAENTTETQTSTSTSSLRSDPKLWLALGTVATGLIGLAATGIVQALALTPEPDSPTTTDPDAAASATETATRDQLTKEAFQNPDNQKVNIDELGNAIPSGVLKDDVVANIEEQAKAAGEEAKQQAIENNAQAQKKYDEQQAKRQEELKVSSGAGYGLSGALILGGGIGVAVTAALHRKNQPVEQTTTTTTTTTTTSARTVENKPANNTPAQGNVDTPGSEDTMESRRSSMASTSSTFFDTSSIGTVQNPYADVKTSLHDSQVPTSNSNTSVQNMGNTDSVVYSTIQHPPRDTTDNGARLLGNPSAGIQSTYARLALSGGLRHDMGGLTGGSNSAVNTSNNPPAPGSHRFV", "soluble on expression in E. coli": "not soluble"}
{"sequence": "MARDGGVSCLRRSEMMSVGGIGGIESAPLDLDEVHVLAVDDSLVDRIVIERLLRITSCKVTAVDSGWRALEFLGLDNEKASAEFDRLKVDLIITDYCMPGMTGYELLKKIKESSNFREVPVVIMSSENVLTRIDRCLEEGAQDFLLKPVKLADVKRLRSHLTKDVKLSNGNKRKLPEDSSSVNSSLPPPSPPLTISPESSPPLTVSTESSDSSPPLSPVEIFSTSPLSSPIDDEDDDVLTSSSEESPIRRQKMRSPGLD", "soluble on expression in E. coli": "not soluble"}
{"sequence": "MGSDKIHHHHHHMDFYTIQFDDLANFESAGIFVNNKKWKHSHRILSSFEIIVMIEGVLPIQVSNTQYRVKPNKLLIIPPSAEHFGFEFTTSDIKFIWIHFNCSKFKINDEKSLFLSNIENSSIILPNYSNKLDVQRIILMSNHLLDITQENVNSIYLNLFLNSTLHEINYQTQKILKERQLSNLYLQPVREFIRINCFEDIDLGSIATHFNYNKSYLSRKYKKVMGIGIKQQINKFRISRAEYLLSNTSLTVQEISSQIGFNDEKYFMRLFRKNTNSTPSEYRKLYSQRHFNKE", "soluble on expression in E. coli": "not soluble"}
